Measurements from patent US20260258084A1, “New Peptides as Selective IL-23 Receptor Antagonists” (Sanofi, priority 2022, published 2026).
Each block holds one molecule with its values, some of them ahead of it. Starred links: 1 amine or outer side, 2 acyl side, 3 side chain; linkers in the order of their positions; H or OH if unused. Positions of bridges follow the written chain, without caps; N, C: chain ends. Non-standard residues stand in square brackets, D forms with d. Residues, ends and D or L forms follow the SMILES beside them. No end group written: not given here. *: point of attachment. Yde = (2S)-2-amino-3-[4-[2-(dimethylamino)ethoxy]phenyl]propanoic acid, CN(C)CCOc1ccc(C[C@H](N[*:1])C(=O)[*:2])cc1; Phe(4-OMe) = COc1ccc(C[C@H](N[*:1])C(=O)[*:2])cc1; Trp(7-Me) = Cc1cccc2c(C[C@H](N)C(=O)O)c[nH]c12; αMeLys(Me2) = CN(C)CCCC[C@](C)(N)C(=O)O; 2Nal = N[C@@H](Cc1ccc2ccccc2c1)C(=O)O; AEF = NCCOc1ccc(C[C@H](N)C(=O)O)cc1; 3Pal = N[C@@H](Cc1cccnc1)C(=O)O; Dad = desamino-aspartamic acid; αMeL = CC(C)C[C@](C)(N)C(=O)O; Suc = O=C(CCC(=O)[*:2])[*:1]; Nmapt = not defined here; Thp = NC1(C(=O)O)CCOCC1; Me2NCH2CH2 = CN(C)CC*; Aib = CC(C)(N)C(=O)O; Ava = NCCCCC(=O)O

Key:
[1] = tested on: IL-23 induced STAT3 signaling in HEK-Blue™ IL-23 cells; test: IL-23 induced STAT3 signaling in HEK-Blue IL-23 cells (SEAP reporter); type: cell-based; conditions: human IL23 0.25 ng/ml, read-out: pSTAT3
Description: HEK-Blue™ IL-23 cells (Invivogen) are designed for the detection of bioactive human (hIL-23) and murine IL-23 (mIL-23) by monitoring the activation of the STAT3 pathway. Binding of IL-23 to its receptor on the surface of HEK-Blue™ IL-23 cells triggers a signalling cascade leading to the activation of STAT3 and the subsequent production of secreted embryonic alkaline phosphatase (SEAP). This can be readily assessed using QUANTI-Blue™ Solution, a SEAP detection reagent.
HEK-Blue™ IL-23 cells were cultured as described by Invivogen.
On the first day of assay 10 μL of the HEK-Blue IL23 cell suspension (final concentration: 10,000 cells/well) and 10 μl of serially diluted peptides solutions were dispensed into a 384-well assay plate. After pre-incubation of the reaction mixtures at 37° C./5% CO2/95% humidity for 60 minutes, 10 μl of the human IL23 cytokine (final concentration: 0.25 ng/ml) was added to each well for the STAT3 signalling activation. The plate was incubated overnight at 37° C./5% CO2/95% humidity.
On the second day 20 μl per well of Quanti-Blue detection solution (prepared according to the manufacture instruction) was dispensed into a new 384-well plate and followed by the transfer of 5 μl supernatant of the overnight incubated cell/sample mixtures. After incubation of 45 min at room temperature signals were measured with PHERAstar (BMG) at OD 620-655 nm. Dose response data were fitted with XLfit.

[2] = biological target: T1, human interleukin-23 receptor (recombinant human IL-23R-Fc chimera) (Homo sapiens, UniProt Q5VWK5); test: Human ELISA IL23/IL23R (assay for specific human IL23R antagonists); type: binding; conditions: Table 10; read-out: Human ELISA IL23/IL23R IC50
T1 construct: Fc (IgG Fc fusion)
Description: Antagonism of compounds for human interleukin-23 receptor antagonists, was determined by an ELISA assay.
A 384-well plate was coated with 50 μl/well of human IL23 at a final concentration of […] and incubated overnight at 4° C. The wells were washed 3 times with 80 μl wash buffer and blocked with 80 μl blocking buffer for 60 minutes at room temperature and washed again. 20 μl of serially diluted test peptides was added to each well and subsequently 20 μl of recombinant human IL-23R-Fc chimera at final concentration of 0.1 μg/ml. The plate was incubated for 60 minutes at room temperature. After the wells were washed, bound IL23R-Fc was detected with goat anti-hu-IgG1-HRP antibody. Signals were visualized with QuantaBlu Fluorogenic Peroxidase Substrate.

[3] = biological target: T2, IL-23 receptor on the surface of HEK-Blue IL-23 cells (UniProt Q5VWK5 24-629, limits assumed); test: cell-based or functional assay
T2 sequence (looked up): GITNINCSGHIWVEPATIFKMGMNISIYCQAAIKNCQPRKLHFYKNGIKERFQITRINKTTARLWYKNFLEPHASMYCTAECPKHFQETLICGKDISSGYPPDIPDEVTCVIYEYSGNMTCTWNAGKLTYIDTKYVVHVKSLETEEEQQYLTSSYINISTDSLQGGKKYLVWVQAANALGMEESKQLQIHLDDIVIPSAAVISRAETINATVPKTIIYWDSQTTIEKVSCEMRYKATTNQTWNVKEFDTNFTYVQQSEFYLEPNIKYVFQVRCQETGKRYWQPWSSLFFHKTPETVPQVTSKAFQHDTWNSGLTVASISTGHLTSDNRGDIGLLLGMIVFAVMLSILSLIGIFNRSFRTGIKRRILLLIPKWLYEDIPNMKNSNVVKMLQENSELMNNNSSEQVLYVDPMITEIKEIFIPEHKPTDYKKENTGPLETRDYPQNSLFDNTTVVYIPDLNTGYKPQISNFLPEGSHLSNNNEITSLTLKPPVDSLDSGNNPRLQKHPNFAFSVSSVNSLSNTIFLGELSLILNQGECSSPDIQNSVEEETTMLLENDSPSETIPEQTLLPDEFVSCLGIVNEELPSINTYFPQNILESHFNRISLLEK

IC50 [2]: 0.91 nM
Molecule: Cc1cccc2c(C[C@@H]3NC(=O)[C@H]([C@@H](C)O)NC(=O)[C@H](CC(N)=O)NC(=O)[C@@H]4CSSC[C@H](NC(=O)[C@H](CC(C)C)NC3=O)C(=O)N[C@@H](Cc3ccc(OCCN(C)C)cc3)C(=O)N[C@@H](Cc3ccc5ccccc5c3)C(=O)N[C@@](C)(CCCCN(C)C)C(=O)N[C@H](C(=O)N[C@@H](CC(N)=O)C(=O)N[C@@H](Cc3cccnc3)C(N)=O)CCCCNC(=O)CCC(=O)N4)c[nH]c12 [compound 150] (CNT[Trp(7-Me)]LCY(Me2NCH2CH2)[2Nal][αMeLys(Me2)]KN[3Pal]-NH2; disulfide 1-6; linker N-10 via Suc)
IC50 [1]: 0.13 nM

pSTAT3 (nM) [3]: 18.7 nM
B6: Compound of SEQ ID NO: 14 (peptide)
peptide: [Nmapt]CKWQC[AEF][2Nal][αMeL]ENN-NH2
modifications: lactam N-10; disulfide 2-6; not fully specified (residue 3); printed as Nmapt(§1)-C(§3)(@2)-K[aAc](@3)-W-Q-C(@2)-Yae-Nal-Mle-E(§1)-N—N—NH2; reading uncertain; also: K[aAc]: Cys2 bonded to epsilon-NH2 of acetylated Lys3, acetyl presumably on alpha-amine

The next lines start with the molecule.

B1: Compound of SEQ ID NO: 1 (peptide)
peptide: [Ava]CNTWQC[Phe(4-OMe)][2Nal][Aib]ENN-NH2
modifications: lactam N-11; disulfide 2-7
SMILES: COc1ccc(C[C@@H]2NC(=O)[C@@H]3CSSC[C@H](NC(=O)CCCCNC(=O)CC[C@@H](C(=O)N[C@@H](CC(N)=O)C(=O)N[C@@H](CC(N)=O)C(N)=O)NC(=O)C(C)(C)NC(=O)[C@H](Cc4ccc5ccccc5c4)NC2=O)C(=O)N[C@@H](CC(N)=O)C(=O)N[C@@H]([C@@H](C)O)C(=O)N[C@@H](Cc2c[nH]c4ccccc24)C(=O)N[C@@H](CCC(N)=O)C(=O)N3)cc1
pSTAT3 (nM) [3]: 18.5 nM

B2: Compound of SEQ ID NO: 11 (peptide)
peptide: [Dad]CNTWQC[Phe(4-OMe)][2Nal][Aib]KNN-NH2
modifications: lactam (positions not given here); disulfide 2-7; not fully specified (bridges); printed as Dad(§1)-C(@2)-N-T-W-Q-C(@2)-Yme-Nal-Aib-K(§1)-N—N—NH2
pSTAT3 (nM) [3]: 53.5 nM

B3: Compound of SEQ ID NO: 10 (peptide)
peptide: [Ava]CNTWQC[Yde][2Nal][αMeL]EN[dL]-NH2
modifications: lactam N-11; disulfide 2-7
SMILES: CC(C)C[C@@H](NC(=O)[C@H](CC(N)=O)NC(=O)[C@@H]1CCC(=O)NCCCCC(=O)N[C@H]2CSSC[C@H](NC(=O)[C@H](CCC(N)=O)NC(=O)[C@H](Cc3c[nH]c4ccccc34)NC(=O)[C@H]([C@@H](C)O)NC(=O)[C@H](CC(N)=O)NC2=O)C(=O)N[C@@H](Cc2ccc(OCCN(C)C)cc2)C(=O)N[C@@H](Cc2ccc3ccccc3c2)C(=O)N[C@@](C)(CC(C)C)C(=O)N1)C(N)=O
pSTAT3 (nM) [3]: 25.8 nM

B4: Compound of SEQ ID NO: 13 (peptide)
peptide: [Nmapt]CKWQC[AEF][2Nal][Thp]ENN-NH2
modifications: lactam N-10; disulfide 2-6; not fully specified (residue 3); printed as Nmapt(§1)-C(§3)(@2)-K[aAc](@3)-W-Q-C(@2)-Yae-Nal-Thp-E(§1)-N—N—NH2; reading uncertain; also: K[aAc]: Cys2 bonded to epsilon-NH2 of acetylated Lys3, acetyl presumably on alpha-amine
pSTAT3 (nM) [3]: 32 nM

B5: Compound of SEQ ID NO: 12 (peptide)
peptide: [Nmapt]CKWQC[AEF][2Nal][Aib]ENN-NH2
modifications: lactam N-10; disulfide 2-6; not fully specified (residue 3); printed as Nmapt(§1)-C(§3)(@2)-K[aAc](@3)-W-Q-C(@2)-Yae-Nal-Aib-E(§1)-N—N—NH2; reading uncertain; also: K[aAc]: Cys2 bonded to epsilon-NH2 of acetylated Lys3, acetyl presumably on alpha-amine
pSTAT3 (nM) [3]: 27.9 nM
